These results are taken from patent publication US20070031511A1, “Method of treatment” (priority 2003, published 2007).

A short description of this experiment: Quenching of peptide tryptophan fluorescence by ferric ions (stoichiometry, apparent Kd). The class given is binding. The conditions noted are these: 10 mM sodium acetate pH 4.0, 100 mM NaCl, 0.005% Tween 20; mean ± S.E.; read-out: Kd (μM), apparent dissociation constant for ferric ions. As to the method: The tryptophan fluorescence of peptide solutions was measured in 3 mL quartz cuvettes thermostated at […], with a Spex Fluorolog-2 spectrofluorimeter (Spex Industries, Edison, N.J.), with the excitation and emission wavelengths set at 290 and 345 nm, respectively. The quenching of tryptophan fluorescence induced by the binding of metal ions was used to calculate the fraction of binding sites occupied, fa: fa=(yf−y)/(yf−yb) where y is the fluorescence signal at a given concentration of metal ions and yb and yf are the signals when the binding sites are fully occupied and unoccupied, respectively (Winzor et al, 1995). […]
The tryptophan fluorescence of progastrin6-80, glycine-extended gastrin17 and related peptides was measured in the presence of increasing concentrations of ferric ions in 10 mM sodium acetate, pH 4.0, 100 mM NaCl, 0.005% Tween 20. […]
The tryptophan fluorescence of amidated gastrin17 and related peptides was measured in the presence of increasing concentrations of ferric ions at pH 4.0 (8). […]

B1: Progastrin: recombinant human progastrin6-80 (protein, listed as Homo sapiens)
chain: SQQPDAPLGTGANRDLELPWLEQQGPASHHRRQLGPQGPPHLVADPSKKQGPWLEEEEEAYGWMDFGRRSAEDEN
Regarding B1, the Kd was 2.15 ± 0.14 µM.
